Patent publication US20170166895

How the values were obtained:
[1] = biological target: T1, Complement component 3 (C3) (Homo sapiens) (UniProt P01024+P01024); assay: filter; details: 3'-3' idT
[2] = biological target: T1, Complement component 3 (C3) (Homo sapiens); assay: inhibition; details: P = NapdU (all U), 3'-3' idT, hemolysis, 20 nM C3, GVB++, 37 C
[3] = all U in listing = NapdU, SB18T0.01, 37C

T1 sequence (P01024 23-667, chain 1 of 2): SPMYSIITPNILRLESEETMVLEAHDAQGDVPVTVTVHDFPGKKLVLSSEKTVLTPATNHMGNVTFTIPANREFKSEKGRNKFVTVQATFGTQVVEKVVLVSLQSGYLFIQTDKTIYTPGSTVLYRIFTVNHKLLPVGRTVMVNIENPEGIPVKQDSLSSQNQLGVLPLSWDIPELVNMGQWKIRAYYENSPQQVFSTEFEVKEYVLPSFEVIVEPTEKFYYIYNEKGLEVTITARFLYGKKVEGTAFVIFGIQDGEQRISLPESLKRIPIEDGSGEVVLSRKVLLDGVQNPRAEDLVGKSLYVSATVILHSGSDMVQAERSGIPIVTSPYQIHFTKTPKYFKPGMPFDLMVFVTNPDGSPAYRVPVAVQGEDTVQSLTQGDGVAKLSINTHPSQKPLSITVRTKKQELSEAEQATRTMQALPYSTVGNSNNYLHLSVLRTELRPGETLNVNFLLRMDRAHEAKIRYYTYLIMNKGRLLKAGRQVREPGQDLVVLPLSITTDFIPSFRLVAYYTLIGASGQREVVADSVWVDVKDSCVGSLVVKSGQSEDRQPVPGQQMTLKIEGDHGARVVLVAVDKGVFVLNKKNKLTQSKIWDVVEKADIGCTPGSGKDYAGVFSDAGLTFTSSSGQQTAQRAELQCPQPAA
T1 sequence (P01024 672-1663, chain 2 of 2): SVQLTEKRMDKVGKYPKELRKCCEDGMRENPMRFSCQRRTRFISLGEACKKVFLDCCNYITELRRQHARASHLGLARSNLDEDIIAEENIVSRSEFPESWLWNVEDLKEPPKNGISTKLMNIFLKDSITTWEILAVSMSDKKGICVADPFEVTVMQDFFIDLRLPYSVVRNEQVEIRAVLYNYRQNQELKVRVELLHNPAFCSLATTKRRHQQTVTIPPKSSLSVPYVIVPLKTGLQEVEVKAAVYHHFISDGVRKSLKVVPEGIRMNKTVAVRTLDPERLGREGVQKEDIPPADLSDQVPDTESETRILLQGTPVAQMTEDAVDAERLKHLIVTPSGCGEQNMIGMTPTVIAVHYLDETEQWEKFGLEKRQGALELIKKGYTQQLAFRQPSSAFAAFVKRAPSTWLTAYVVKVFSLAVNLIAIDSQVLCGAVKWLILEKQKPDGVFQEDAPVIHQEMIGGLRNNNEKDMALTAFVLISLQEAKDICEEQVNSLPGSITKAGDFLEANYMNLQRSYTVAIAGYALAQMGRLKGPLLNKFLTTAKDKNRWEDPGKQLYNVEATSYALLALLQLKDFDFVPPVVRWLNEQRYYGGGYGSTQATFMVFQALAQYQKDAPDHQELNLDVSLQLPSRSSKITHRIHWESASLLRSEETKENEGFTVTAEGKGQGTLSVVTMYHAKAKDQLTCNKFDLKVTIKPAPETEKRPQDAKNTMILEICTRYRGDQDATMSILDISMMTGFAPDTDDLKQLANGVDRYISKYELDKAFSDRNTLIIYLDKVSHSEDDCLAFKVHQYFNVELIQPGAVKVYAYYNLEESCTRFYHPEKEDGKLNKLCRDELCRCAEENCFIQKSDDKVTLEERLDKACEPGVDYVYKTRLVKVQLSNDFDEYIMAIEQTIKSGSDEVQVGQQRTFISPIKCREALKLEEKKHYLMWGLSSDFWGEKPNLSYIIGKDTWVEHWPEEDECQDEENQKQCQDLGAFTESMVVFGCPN

With “CGGUGACUCAAUAGUCCGUACGUUCCCG [8491-94_90]” the Kd ([1]; all U = NapdU, 2'-OMe at 1,2,3,5,7,10,13,26,27,28, SB18T0.01, 37C) was 4.24 pM and the IC50 ([2]; 2'-OMe at 1,2,3,5,7,10,13,26,27,28) was 18900 pM.

With “CGGUGACUCAAUAGUCCGUACGUUCCCG [8491-94_97]” the Kd ([1]; all U = NapdU, 2'-OMe at 1,2,3,5,7,9,10,13,19,20,22-28, SB18T0.01, 37C) was 54.9 pM and the IC50 ([2]; 2'-OMe at 1,2,3,5,7,9,10,13,19,20,22,23,24,25,26,27,28, C3a release in 34% serum IC50 3 uM) was 15600 pM.

“CCGGUGACUCAAUAGUCCGUACGUUCCCG [8491-94_27]” was tested, and the Kd ([1]; all U = NapdU, SB18T0.01, 37C) was 65.8 pM and the IC50 [2] was 24600 pM.

Work on “CCGGUGACUCAAUAGUCCGUACGUUCCCGG [8491-94_26]” yielded a Kd ([1]; all U = NapdU, SB18T0.01, 37C) of 51.1 pM and an IC50 [2] of 15100 pM.

“CGGUGACUCAAUAGUCCGUACGUUCCCG [8491-94_53]” showed a Kd ([1]; all U = NapdU, SB18T0.01, 37C) of 33.4 pM and an IC50 [2] of 17100 pM.

With “CGGUGACUCAAUAGUCCGUATGUUCCCG [8491-94_132]” the Kd ([1]; all P = NapdU, T = dT, 2'-OMe at 1,2,3,5,7,9,10,13,19,20,22-28, SB18T0.01, 37C) was 12700 pM.

With “ACTCCUCCCUUUGGCUCGAUAGUCGGUACGUUUUGGGGAGGCGUGGAGGA [8491-409_3]” the Kd [1, 3] was 316 pM.

“TGGUGACUCAAUAGUCCGUACGUUCCCA [8491-94_128]” gave a Kd ([1]; all P = NapdU, T1 = dT, 2'-OMe at 2,3,5,7,9,10,13,19,20,22-28, SB18T0.01, 37C) of 38 pM.

“CCGGUGAUCAAUAGUCCGUACGUUCCCGG [8491-94_36]” gave a Kd ([1]; all U = NapdU, C3-spacer replaces C8, SB18T0.01, 37C) of 31.5 pM.

Work on “TGGUGACUCAAUAGUCCGUATGUUCCCA [8491-94_130]” yielded a Kd ([1]; all P = NapdU, T = dT, 2'-OMe at 2,3,5,7,9,10,13,19,20,22-28, SB18T0.01, 37C) of 17900 pM.

“CGGUGACUCAAUAGUCCGUACGUUCCCG [8491-94_101]” was tested, and the Kd ([1]; all U = NapdU, 2'-OMe at 1,2,3,5,7,9,10,13,20,22,25-28, SB18T0.01, 37C) was 219 pM.

“ACTCCAGACUGUAGUUGACUCCAUAGUCCGUACGUUUACACAUUGGAGGA [8491-189_3]” showed a Kd [1, 3] of 33.5 pM.

In the case of CGGUGAUCAAUAGUCGUACGUUCCG [8491-94_54], the Kd ([1]; all U = NapdU, C3-spacer replaces C7, C17, C25, SB18T0.01, 37C) is reported as 22.1 pM.

“ACTCCCCGGUGACUCAAUAGUCCGUACGUUCC [8491-94_20]” showed a Kd ([1]; all U = NapdU, SB18T0.01, 37C) of 1140 pM.

“ACTCCCUAUGAGGGCUGAUUCAAUAGUCAGUACGUUCGCCCCAUCGAGGA [8491-399_3]” gave a Kd [1, 3] of 8610 pM.

“ACTCCGAGCUUUUUUGACUCAAUUAGUCCGUACGUUUUUUGGCCGGGCAGGGGAGGA [8491-404_3]” was tested, and the Kd [1, 3] was 185 pM.

In the case of “ACTCCCUUAAAAGGGUCGUUGACUCCAUAGUCCGUACGUUUCCGAGAGGA [8491-394_3]”, the Kd [1, 3] is reported as 448 pM.

“CGGUGACUCAAUAGUCCGUACGUUCCCG [8491-94_59]” was tested, and the Kd ([1]; P = NapdU (all U), 2'-OMe C1, SB18T0.01, 5 mM MgCl2, 37 C) was 34.2 pM.

Work on “CGGUGACUCAAUAGUCCGUACGUUCCCG [8491-94_75]” yielded a Kd ([1]; P = NapdU (all U), 2'-OMe C17, SB18T0.01, 5 mM MgCl2, 37 C) of 214 pM.

Work on “CGGUGACUCAAUAGUCGUACGUUCCCG [8491-94_98]” yielded a Kd ([1]; all U = NapdU, 2'-OMe at 1,2,3,5,7,9,10,13,19,20,22-28, C3-spacer replaces C17, SB18T0.01, 37C) of 95 pM.

“CCGGUGACUCAUAGUCCGUACGUUCCCGG [8491-94_39]” showed a Kd ([1]; all U = NapdU, C3-spacer replaces A12, SB18T0.01, 37C) of 310 pM.

With “ACTCCUCCCACACGACGAAUUUGACUCAAUAGUCCGUACGUUUUAGAGGA [8491-402_3]” the Kd [1, 3] was 73.9 pM.

With “CCGGUGACUCAAUGUCCGUACGUUCCCGG [8491-94_40]” the Kd ([1]; all U = NapdU, C3-spacer replaces A14, SB18T0.01, 37C) was 1990 pM.

“CCGGUGACUCAAUAGUCCGUACGUUCCCGGUCCGAACGCGGAGGA [8491-94_23]” showed a Kd ([1]; all U = NapdU, SB18T0.01, 37C) of 62.1 pM.

“CGGUGACUCAAUAGUCCGUACGUUCCCG [8491-94_65]” gave a Kd ([1]; P = NapdU (all U), 2'-OMe C7, SB18T0.01, 5 mM MgCl2, 37 C) of 31.6 pM.

With “CGGUGACUCAAUAGUCCGUACGUUCCCG [8491-94_61]” the Kd ([1]; P = NapdU (all U), 2'-OMe G3, SB18T0.01, 5 mM MgCl2, 37 C) was 23.7 pM.

In the case of “ACTCCGAGCAUUGACUCAAUAGUCCGUACGUUUGGCCGGGCAGGGGAGGA [8491-3_3]”, the Kd ([1]; all U in listing = NapdU, SB18T0.01 (5 mM MgCl2), 37C) is reported as 119 pM.

With “CGGUGACUCAAUAGUCCGUACGUUCCCGG [8491-94_31]” the Kd ([1]; all U = NapdU, C3-spacer replaces C2, SB18T0.01, 37C) was 140 pM.
